According to patent US20260193326A1 (published 2026):
Like-named read-outs stand apart in the source and are kept apart here.

What was measured:
[1] = target: T1, AAV8 (adeno-associated virus serotype 8); test: SPR, AAV on CM5 chip
T1 construct: also called adeno-associated virus serotype 8
Procedure: (§1) AAV was amine-coupled to a CM5 sensor chip at a density of 500-800 response units (RU). Nanobodies were injected at seven concentrations (1-100 nM) with a flow rate of 45 μL/min, and chip regeneration was performed using glycine-HCl (pH 1.5). Binding curves at different nanobody concentrations were used to calculate kinetic parameters (Kₐ, Kd, KD) (Table 2 and FIG. 2).

[2] = target: T2, AAV2 (adeno-associated virus serotype 2, UniProt P03135 1-735); test: SPR, AAV on CM5 chip
T2 construct: also called adeno-associated virus serotype 2
Procedure: as §1

[3] = target: T3, AAV9 (adeno-associated virus serotype 9); test: SPR, AAV on CM5 chip
T3 construct: also called adeno-associated virus serotype 9
Procedure: as §1

[4] = target: T4, AAV5 (adeno-associated virus serotype 5); test: SPR, AAV on CM5 chip
T4 construct: also called adeno-associated virus serotype 5
Procedure: as §1

[5] = target: T5, AAV5 (adeno-associated virus serotype 5 (AAV5)); test: 1 mL column of A4-002 coupled to agarose gel (11.58 mg/g gel); AAV capsid particles bound
T5 construct: also called adeno-associated virus serotype 5; AAV5 antigen

[6] = target: T6, AAV6 (adeno-associated virus serotype 6 (AAV6)); test: as above
T6 construct: also called adeno-associated virus serotype 6

[7] = target: T7, AAV8 (adeno-associated virus serotype 8 (AAV8)); test: as above
T7 construct: also called adeno-associated virus serotype 8; AAV8 antigen

[8] = target: T8, AAV9 (adeno-associated virus serotype 9 (AAV9)); test: as above
T8 construct: also called adeno-associated virus serotype 9; AAV9 antigen

[9] = target: T1, AAV8; test: SPR, AAV on CM5 chip; remark: listed apart in the source
[10] = target: T2, AAV2; test: SPR, AAV on CM5 chip; remark: listed apart in the source
[11] = target: T3, AAV9; test: SPR, AAV on CM5 chip; remark: listed apart in the source
[12] = target: T4, AAV5; test: SPR, AAV on CM5 chip; remark: listed apart in the source
[13] = target: T1, AAV8; test: SPR, AAV on CM5 chip; remark: listed apart in the source
[14] = target: T2, AAV2; test: SPR, AAV on CM5 chip; remark: listed apart in the source
[15] = target: T3, AAV9; test: SPR, AAV on CM5 chip; remark: listed apart in the source
[16] = target: T4, AAV5; test: SPR, AAV on CM5 chip; remark: listed apart in the source
[17] = target: Adeno-associated virus serotype 8 (AAV8) (AAV8); test: SPR, AAV amine-coupled to CM5 chip, nanobody 1-50 nM as analyte
[18] = target: Adeno-associated virus serotype 9 (AAV9) (AAV9); test: as above
[19] = target: Adeno-associated virus serotype 5 (AAV5) (AAV5); test: as above

B1: A4-105 (VHH)
VHH: VQLQESGGGLVQPGGSLRLSCAASGSIFSLNAMGWYRQAPGKQRELVATITSGGSTNYADSVKGRFTISRDNAKNTAYLQMNNLQPEDTAVYYCHVDEVRESIWTTSNLWGQGTQVTVSS
Kd [1]: 21.7 nM
koff [1]: 0.00391 s⁻¹
kon [1]: 180000 M⁻¹ s⁻¹
Kd [2]: 34.2 nM
koff [2]: 0.00543 s⁻¹
kon [2]: 159000 M⁻¹ s⁻¹
Kd [3]: 17 nM
koff [3]: 0.00189 s⁻¹
kon [3]: 111000 M⁻¹ s⁻¹
Kd [4]: 14 nM
koff [4]: 0.00139 s⁻¹
kon [4]: 99600 M⁻¹ s⁻¹

B2: A4-111 (VHH)
VHH: VQLQESGGGLAQPGGSLRLSCAASGSNFSINTMGWYRQRAGKQREFVATITRGGSTNYGDSVKGRFTISRDNAKTTVYLQMNSLRPEDTAVYYCHLDEVRESTWTTSNLWGQGTQVTVSS
Kd [1]: 1.88 nM
koff [1]: 0.00014 s⁻¹
kon [1]: 74500 M⁻¹ s⁻¹
Kd [2]: 3.51 nM
koff [2]: 0.0002 s⁻¹
kon [2]: 56900 M⁻¹ s⁻¹
Kd [3]: 2 nM
koff [3]: 0.00025 s⁻¹
kon [3]: 125000 M⁻¹ s⁻¹
Kd [4]: 1.06 nM
koff [4]: 9e-05 s⁻¹
kon [4]: 85300 M⁻¹ s⁻¹

B3: A4-002 (VHH)
VHH: VQLQESGGGLVQPGGSLRLSCAASGRSFSINTMGWYRQAPGKQRELVAAVTRGGSTNYAGSVKGRFTISRDNAKNTVYLQMNSLRPEDTAVYYCHIDEVRQSSWTTSNIWGQGTQVTVSS
binding capacity [5]: 1.17e+14 VP
binding capacity [6]: 9.2e+13 VP
binding capacity [7]: 1.02e+14 VP
binding capacity [8]: 1.26e+14 VP

B4: A4-114 (VHH)
VHH: VQLQESGGGLVQTGGSLRLSCVASGSIFSINTVGWYRQAPGKQRELVATVTRAGSTWYAGSVKGRFTISRDNTKNTIYLQMNSLRPEDTAVYYCHVDELRQSTWTTSNLWGQGTQVTVSS
Kd [1]: 1.81 nM
koff [1]: 0.00017 s⁻¹
kon [1]: 94000 M⁻¹ s⁻¹
Kd [2]: 1.95 nM
koff [2]: 0.00022 s⁻¹
kon [2]: 113000 M⁻¹ s⁻¹
Kd [3]: 472 nM
koff [3]: 0.00123 s⁻¹
kon [3]: 2610 M⁻¹ s⁻¹
Kd [4]: 7.11 nM
koff [4]: 0.0011 s⁻¹
kon [4]: 155000 M⁻¹ s⁻¹

B5: A4-H1 (VHH)
VHH: VQLVESGGGLVQPGGSLRLSCAASGRSFSINTMGWFRQAPGKGLEAVAIVTRGGSTYYADSVKGRFTISRDNSKNTLYLQMNSLRAEDTAVYYCHIDEVRQSSWTTSNIWGQGTLVTVSS
Kd [9]: 6.82 nM
koff [9]: 0.00135 s⁻¹
kon [9]: 198000 M⁻¹ s⁻¹
Kd [10]: 8.51 nM
koff [10]: 0.00139 s⁻¹
kon [10]: 163000 M⁻¹ s⁻¹
Kd [11]: 127 nM
koff [11]: 0.00069 s⁻¹
kon [11]: 5420 M⁻¹ s⁻¹
Kd [12]: 8.76 nM
koff [12]: 0.00153 s⁻¹
kon [12]: 175000 M⁻¹ s⁻¹

B6: A4-H6 (VHH)
VHH: VQLVESGGGLVQPGGSLRLSCAASGRGFSINTMGWFRQAPGKGRELVAIVTRGGTTYYADSVKGRFTISRDNSKNTVYLQMNSLRAEDTAVYYCHVDEVRQSSWTTSNLWGQGTLVTVSS
Kd [9]: 344 nM
koff [9]: 0.00164 s⁻¹
kon [9]: 4760 M⁻¹ s⁻¹
Kd [10]: 746 nM
koff [10]: 0.00565 s⁻¹
kon [10]: 7570 M⁻¹ s⁻¹
Kd [11]: 1160 nM
koff [11]: 0.00177 s⁻¹
kon [11]: 1530 M⁻¹ s⁻¹
Kd [12]: 746 nM
koff [12]: 0.00565 s⁻¹
kon [12]: 7570 M⁻¹ s⁻¹

B7: A4-H4 (VHH)
VHH: VQLVESGGGLVQPGGSLRLSCAASGSIFSINLMGWFRQAPGKGLELVAIITPGGNTYYADSVKGRFTISRDNSKNTVYLQMNSLRAEDTAVYYCHVDEVRQSSWTTSNLWGQGTLVTVSS
Kd [9]: 9.44 nM
koff [9]: 0.00125 s⁻¹
kon [9]: 132000 M⁻¹ s⁻¹
Kd [10]: 17.2 nM
koff [10]: 0.0017 s⁻¹
kon [10]: 99000 M⁻¹ s⁻¹
Kd [11]: 5.91 nM
koff [11]: 0.00078 s⁻¹
kon [11]: 132000 M⁻¹ s⁻¹
Kd [12]: 2.86 nM
koff [12]: 0.00032 s⁻¹
kon [12]: 112000 M⁻¹ s⁻¹

B8: A4-B3 (VHH)
chain: VQLVESGGGLVQPGGSLRLSCAASGRSFSINTMGWFRQAPGKGLEAVAIVTRGGSTYYADSVKGRFTISRDNSKNTLYLQMNSLRAEDTAVYYCHIDEVRQSSWTTSNIWGQGTLVTVSSGGGGSGGGGSGGGGSVQLVESGGGLVQPGGSLRLSCAASGRSFSINTMGWFRQAPGKGLEAVAIVTRGGSTYYADSVKGRFTISRDNSKNTLYLQMNSLRAEDTAVYYCHIDEVRQSSWTTSNIWGQGTLVTVSS
Kd [13]: 0.835 nM
koff [13]: 8e-05 s⁻¹
kon [13]: 95800 M⁻¹ s⁻¹
Kd [14]: 0.245 nM
koff [14]: 2e-05 s⁻¹
kon [14]: 81600 M⁻¹ s⁻¹
Kd [15]: 20.3 nM
koff [15]: 0.00095 s⁻¹
kon [15]: 46800 M⁻¹ s⁻¹
Kd [16]: 0.556 nM
koff [16]: 0.0001 s⁻¹
kon [16]: 180000 M⁻¹ s⁻¹

B9: A4-B4 (bispecific antibody)
chain: VQLVESGGGLVQPGGSLRLSCAASGRSFSINTMGWFRQAPGKGLEAVAIVTRGGSTYYADSVKGRFTISRDNSKNTLYLQMNSLRAEDTAVYYCHIDEVRQSSWTTSNIWGQGTLVTVSSGGGGSGGGGSGGGGSVQLVESGGGLVQPGGSLRLSCAASGSIFSINLMGWFRQAPGKGLELVAIITPGGNTYYADSVKGRFTISRDNSKNTVYLQMNSLRAEDTAVYYCHVDEVRQSSWTTSNLWGQGTLVTVSS
Kd [13]: 0.332 nM
koff [13]: 5e-05 s⁻¹
kon [13]: 151000 M⁻¹ s⁻¹
Kd [14]: 0.835 nM
koff [14]: 8e-05 s⁻¹
kon [14]: 95800 M⁻¹ s⁻¹
Kd [15]: 5.26 nM
koff [15]: 0.00063 s⁻¹
kon [15]: 120000 M⁻¹ s⁻¹
Kd [16]: 0.872 nM
koff [16]: 0.00016 s⁻¹
kon [16]: 184000 M⁻¹ s⁻¹

B10: A4-T2 (A4-017 with a C-terminal GGGGS linker followed by a 6xHis tag) (VHH)
VHH: VQLQESGGGLVQPGGSLRLSCAASGSIFSINLMGWYRQAPGKQRELVATITRGGNTNYAGSVKGRFTISRDNAKNTVYLQMNSLRPEDTAVYYCHVDEVRQSSWTTSNLWGQGTQVTVSS
Kd [17]: 102 nM
koff [17]: 0.00078 s⁻¹
kon [17]: 7650 M⁻¹ s⁻¹
Kd [18]: 0.513 nM
koff [18]: 0.0001 s⁻¹
kon [18]: 195000 M⁻¹ s⁻¹
Kd [19]: 234 nM
koff [19]: 0.00147 s⁻¹
kon [19]: 6280 M⁻¹ s⁻¹

B11: A4-L1 (A4-017 with a C-terminal IgA hinge followed by a 6xHis tag) (VHH)
VHH: VQLQESGGGLVQPGGSLRLSCAASGSIFSINLMGWYRQAPGKQRELVATITRGGNTNYAGSVKGRFTISRDNAKNTVYLQMNSLRPEDTAVYYCHVDEVRQSSWTTSNLWGQGTQVTVSS
Kd [17]: 220 nM
koff [17]: 0.00093 s⁻¹
kon [17]: 4230 M⁻¹ s⁻¹
Kd [18]: 0.802 nM
koff [18]: 0.00011 s⁻¹
kon [18]: 137000 M⁻¹ s⁻¹
Kd [19]: 569 nM
koff [19]: 0.00092 s⁻¹
kon [19]: 1620 M⁻¹ s⁻¹

B12: A4-M1 (A4-017 with an N-terminal amino acid sequence MetAlaGln) (VHH)
VHH: QVQLQESGGGLVQPGGSLRLSCAASGSIFSINLMGWYRQAPGKQRELVATITRGGNTNYAGSVKGRFTISRDNAKNTVYLQMNSLRPEDTAVYYCHVDEVRQSSWTTSNLWGQGTQVTVSS
Kd [17]: 196 nM
koff [17]: 0.0014 s⁻¹
kon [17]: 7150 M⁻¹ s⁻¹
Kd [18]: 0.821 nM
koff [18]: 0.00015 s⁻¹
kon [18]: 183000 M⁻¹ s⁻¹
Kd [19]: 324 nM
koff [19]: 0.00189 s⁻¹
kon [19]: 5830 M⁻¹ s⁻¹

B13: A4-M2 (A4-017 with an N-terminal methionine) (VHH)
VHH: QVQLQESGGGLVQPGGSLRLSCAASGSIFSINLMGWYRQAPGKQRELVATITRGGNTNYAGSVKGRFTISRDNAKNTVYLQMNSLRPEDTAVYYCHVDEVRQSSWTTSNLWGQGTQVTVSS
Kd [17]: 171 nM
koff [17]: 0.001 s⁻¹
kon [17]: 5830 M⁻¹ s⁻¹
Kd [18]: 0.874 nM
koff [18]: 0.00013 s⁻¹
kon [18]: 149000 M⁻¹ s⁻¹
Kd [19]: 415 nM
koff [19]: 0.002 s⁻¹
kon [19]: 4820 M⁻¹ s⁻¹
